Test results: patent publication US20220048993A1

Target: truncated human FcRH5 (deletion of amino acids 1-744) with N-terminal gD tag (human) (UniProt Q96RD9)
Test: cell-based or functional assay

truncated human FcRH5 (deletion of amino acids 1-744) with N-terminal gD tag (human), sequence (Q96RD9 745-977, stated change not applied): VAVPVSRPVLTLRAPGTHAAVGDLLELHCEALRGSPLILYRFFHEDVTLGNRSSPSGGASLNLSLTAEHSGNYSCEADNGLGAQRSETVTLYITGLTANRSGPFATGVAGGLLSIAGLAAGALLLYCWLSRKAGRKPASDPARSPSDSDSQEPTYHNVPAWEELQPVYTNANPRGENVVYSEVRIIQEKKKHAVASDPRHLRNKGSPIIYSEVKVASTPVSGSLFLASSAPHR

## anti-gD/UCHT1.v9 TDB (bispecific antibody)
  target cell killing, EC50: 0.19 nM
